Test results as given in patent US5427937.

Molecular target: purified human coagulation factor Xa (human) (UniProt P00742)

crude soluble hookworm protein extract (Ancylostoma caninum adult worms) (pool or library)
factor Xa activity (chromogenic assay, hydrolysis of Chromozym X): 50 % reduction
